Test results taken from the nanobody polyreactivity screen of Harvey et al. (2022).

assay: yeast display, Sf9 membrane polyspecificity reagent, FACS + sequencing; frameworks hold sequencing errors
In short: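 A synthetic nanobody library was expressed on Saccharomyces cerevisiae BJ5465 by galactose induction for 36–48 hours. The library was stained for 1 hour at 4 °C with 10% biotinylated, detergent-solubilized Sf9 membrane reagent and enriched with streptavidin microbeads before FACS. Low and high (top ~1%) gates were set on anti-HA fluorescence for expression and streptavidin fluorescence for reagent binding, and each polyreactivity label reflects the gate of origin.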

Row | Sequence | polyreactivity (PSR sort gate)
1 | QVQLVESGGGLVQAGGSLRLSCAASGRTYVKNAMGWYRQAPGKERELVAAITSGGSTYYADSVKGRFTISRDNAKNTVYLQMNSLKPEDTAVYYCAAAWSSRYVSRYYYWGQGTQVTVSS | high polyreactivity
2 | QVQLVESGGGLVQAGGSLRLSCAASGSSFSSYAMGWYRQAPGKERELVASISRRGGSTYYADSVKGRFTISRDNAKNTGYLQMNSLNPEDTAVYYCNAPYAGMGYWGQGTQVTVSS | low polyreactivity
3 | QVQLVESGGGLVQAGGSLRLSCAASGTFTVNTMGWSRQAPGKERELVAAISTGDTTTYADSVKGRFTISRDNAKNTVYLQMNSLKPEDTAVYYCNAVAKLYYWRYDYWGQGTQVTVSS | low polyreactivity
4 | QVQLVESGGGLVQAGGSLRLSCAASGITFYFNTMGWYRQAPGKERELVASISGGSSTYYADSVKGRFTISRDNAKYTVYLQMNSLKPEDTAVYYCNAQGSLFRGWFDYDYWGQGTQVTVSS | low polyreactivity
5 | QVQLVESGGGLVQAGGSLRLSCAASGFIFYLYAMGWYRQAPGTERELVAAISSSGGGTYYADSVKGRFTISRDNAKNTVYLQMNSLKPEDTAVYYCNVPLSYRSEYDYWGQGTQVTVSS | high polyreactivity
6 | QVQLVESGGGLVQAGGSLRLSCAASGSIFSWYAMGWYRQAPGKERELVAAIDSGSKYYADSVKGRFTISRDNAKNTVYLQMNSLKPEDTAVYYCAVDYGYYYWEPWPSDYDMYSWGQGTQVTVSS | high polyreactivity
7 | QVQLVESGGGLVQAGGSLRLSCAASGRTFGWNAMGWYRQAPGKERELVAAISRTGNTYYADSVKGRFTISRDNAKNTVYLQMNSLKPEDTAVYYCAKGRYYTPTYFRGVDLYDYWGQGTQVTVSS | low polyreactivity
8 | QVQLVESGGGLVQAGGTLRLSCAASGIIIGSYAMGWYRQAPGKERELVAAITNGARTNYADSVKGRFTISRDNAKNTVYLQMNSLKPEDTAVYYCAADNYFDWYWLFFEYDYWGQGTQVTVSS | high polyreactivity
9 | QVQLVESGGGLFQAGGSLRLSCAASGRIFGWYAMGWYRQAPGKDRELVAAMSSSTSTYYADSVKGRFTISRDNEKNTVYLEMNSLKPEDTAVYYCNADWYYQRGQNYWFRYDYWGQGTQVTVCS | high polyreactivity
10 | QVQLVESGGGLVQAGGSLRLSCAASGSTFWFYAMGWYRQAPGKERELVAVISNSGSTYYADSVKGRFTISRDNAKNTVYLQMNSLKPEDTAVYYSNKDGGGDSYWYDYWGQGTQVTVSS | low polyreactivity
11 | QVQLLESGGGLVQAGGSLRLSCAASGLIVSEYAMGWYRQAPGKERELVAAIRSDGGSTYYADSVKGRFTISRDNAKNTVYLQMNSLKPEDTAVYYCNAPYRRSAKFRRYGYDYWGQGTQVTVSS | high polyreactivity
12 | QVQLVESGGGLVQAGGSLPLSCAASRLIFTPYAMGWYIQAPGKERELVAAINYGGSRTYYADSVKGRFTISRDNAKNTVYLQMNSLKPEDTAVYYCAARGYTLSYVDMYYWGQGTQVTVSS | high polyreactivity
13 | QVQLVESGGGLVQAGGSLRLSCAASGFTFGSNVMGWYRQAPGKERELVAAIRGRGGSTYYADSVKGRFTISRDNAKNTVYLQMNSLKPEDTAVYYCNAVYSYYYRWYYDFDYWGQGTQVTVSS | high polyreactivity
14 | QVQLVESGGGLVQAGGSLRLSCAASGRIFQYNAMGWYRQAPGKESELVAAIRRGGGSTYYADSVKGRFTISRDNAKNTVYLQMNSLKPEDTAVYYCAARRKRVSFYPEYDYWGQGTQVTVSS | low polyreactivity
15 | QDQLVESGGGLVQAGGSLRLSCAASGSTLRYYAMGWYRQAPGKERELVAAITYSAGRTSYADSVKGRFTISRDNAKNTVYLQMNSLKPEDTAVYYCATQWHSYLRRYDYWGQGTQVTVSS | low polyreactivity
16 | QVQLVESGGGLVQAGGSLRLSCAPSGSIFVVNAMGWFRQAPGKEREFVAAITFGGGTTYYADSVKGRITISRDNAKNTVYLQMYSLKPEDTEVYYCNTRTRGYSSYVGGYNYWGQGTQVTVSS | low polyreactivity

Row | Sequence | polyreactivity (PSR sort gate)
17 | QVQLVESGGGIVQAGGSLRLSCAASGSIFWVNVMGWYRQAPGKEREFVAAITRSGGSTYYADSVKGRFTISRDNAKNTVYLQMNSLKPEDTAVYYCNRRGRRGYDYWGQGTLVTVSS | high polyreactivity
18 | QVQLVESGGGLVQAGGSLRLSCAASGRIFLWNAMGWYRPAPGKERELVAGISWRGSSTYYADSVKGRFTISRDNAKNTVYLQMNSLKPEDTAVYYCAARTRGGRGYGMYYWGQGTQVTVSS | high polyreactivity
19 | QVQHVESGGGLVQAGGSLRLSCAASGSIFRYNARGWYRQAPGKERELVAAISSSGGRTYYADSVKGRFTISRDNAKNTVYLQMNSLKPEDTAVYYCATADTRRFTYGYYYWGQGTQVTVSS | high polyreactivity
20 | QVQLVESGGGLVQAGGSLRLSCAASGSTIRVNVMGWYRQAPGKERELVAAITTSGGSTYYADSVKGRFTISRDNAKNTVYLQMNSLKPEDTAVYYCNTTYPSGWGPDMDYWGQGTQVTVSS | low polyreactivity
21 | QVQLVESGGGLVQAGGSLSLSCAASGITFGLYTLGWYRQAPGKERELVASISQSGGSTYYADSVKGRFTNSRDNAKNTVYLQMNSQKQEDTAVYYCNARRRFWDFSTRGYDSWGQGTQGTVSS | high polyreactivity
22 | QVQLVESGGGLVQAGGSLRLSCAASGSIFRRYAMGWYRQAPGKERELVATISYRGGTTYYADSVKVRFTISRDNAKNTVYLQMNSLKPEDTAVYYCNTLYYRGIYDHWGQGTQVTVSS | high polyreactivity
23 | QVQLVESGGGLVQAGGSLRLSCAASGRNFYTYTMGWYRQAPGKERELVAAISKSGTSTYYADSVKGRFTISRDNAKNTVYLQMTSLKPEDSAVYYCAARAYYARFLMGYWGQGTQVTVSS | high polyreactivity
24 | QVQLVESGGGLVQAGGSLRLSCAASGRIFTRSAMGWYRQAPGKERELVAVITRSGGSTYYADSVKGRFTISRDNAKKTVYLQMNSLKPEDTAVYYCAAKYYGEMYYWGQGTQVTVSS | low polyreactivity
25 | QVQLVESGGGLVQAGGSLRLTCAASGRIFAVYAMGWYRQAPGKERELVATISSSGSTHYADSVKGRFTISRDNAKNTVYLQMNSLKPEDTAVYYCNAGGSELKLGHDYWGQGTQVTVSS | low polyreactivity
26 | QVQLVESGGGLVQAGGSLRLSCAASGSIFKYYTMGWYRQAPGKERELVARISTRGDSTYYADSVKGRFTISRDNAKNTVYLQMNSLKPEDTAVYYCNARPGSRRSSTWGMDYWGQGTQVTVSS | high polyreactivity
27 | QEQLVESVGGLVQARGSLRLSGAASGYTFKYNALGWYRPAPGKERELVAAITSGGSTNYADSVKGRFTISRDNAKNTVYLQMNSLKPEDTAVYYCAAAQPRTNAYRVGSWGQGTQVTVSS | high polyreactivity
28 | QVQLVESGGGLVQAGGSLRLSCAASGLTFPIYAMGWYRQAPGKEREYVAVITTSGGSTYYADSVKGRFTISRDNAKNTVYLQMNSLKPEDTAVYYCNARGIRHYYWGQGTQVTVSS | high polyreactivity
29 | QVQLVESGGGLVQAGGSLRLSCAASGITINYYAMGWYRQAPGKERELVATIRSGGGTYYADSVKGRFTISRDNAKNTVYLQMNSLKTEDTAVYYCASYTYPYYRYDYWGQGTQVTVSS | high polyreactivity
30 | QFQLVESGGGLVQAGGSLRLSCAASGSTFGGNAMGWYRQAPGKERELVAAIDSGGGTNYADSVKGRFTISRDNAKNTVYLQMNSLKPEDSAVYYCNADWAVRSTQNSSSGHDYWGQGTQVTVSS | low polyreactivity
31 | LVQLQESGGGLVQAGGSLRLSCAASGTISQGGYMGWYRQAPGKERELVASINVGGSTNYADSVKGRFTISRDNAKNTVYLQMNSLKPEDNAVYYCAVWGRNRLQLSYWGQGTQVTVSS | low polyreactivity
32 | QVQLVESGGGLVQAGGSLRLSCAASGFTFASYAMGCYIQPPGKEMELVAAITWSGGSTYYADSVKGRFTISRDNAKNTVYLQMNSLKPEDTAVYYCNALVIARNIEMDYWGQGTQVTVSS | high polyreactivity
